Laboratory results as given in patent CN101066999A.

Columns and labels:
[1] = substrate: 人OPN (Osteopontin, R&D Systems) (human) (UniProt P10451); assay: sandwich ELISA: mAb coated at 1.0 μg/ml, OPN standard, rabbit anti-human OPN polyclonal serum as detector
[2] = substrate: 人OPN (Osteopontin, R&D Systems) (human) (UniProt P10451); assay: sandwich ELISA: mAbs coated at 1.0 μg/ml; OPN at 6.25-100 pg/mL for this mAb and 6.25-100 ng/mL for the commercial mAb

B1: 重组抗OPN单克隆抗体 7G2 (antibody, V domains shown)
VL: DILMTQTPLSLPVSLGDQASISCRSSQSLVHSNGNTYLHWYLQKPGQSPKLLISKVSNRFSGVPDRFSGSGSGTDFTLKISRVEAEDLGVYFCSQSTHVPWTFGGGTKLEIKR
VH: MAQVQLEQSGPELVKPGASVKMSCKSSGYTFTTYVMHVKQKPGQGLEWIGYINPYNDGSKYNEKFKGKATLTSDKSSNTAYMELSSLTSEDSAVYYSDSHYGGSPAYWGQGTLVTVSA
B1 was tested, and the 灵敏度 (detection sensitivity for OPN) [1] was 6.52 pg/mL and the fold higher sensitivity for human OPN than the commercial mAb MAB14331 [2] was 1000 fold.
